Measured values published in patent WO2017102789A1 (dated 2017).
Where a chain is given by its changes, count along the chain named.

B1: Mab 205.10.1 (antibody, V domains shown)
VH: QVQLVQSGAEVKKPGASVKVSCKASGYTFRSSYISWVRQAPGQGLEWMGWIYAGTGSPSYNQKLQGRVTMTTDTSTSTAYMELRSLRSDDTAVYYCARHRDYYSNSLTYWGQGTLVTVSS
VL: DIVMTQSPDSLAVSLGERATINCKSSQSLLNSGNQKNYLTWYQQKPGQPPKLLIYWASTRESGVPDRFSGSGSGTDFTLTISSLQAEDVAVYYCQSDYSYPYTFGQGTKLEIK
notes: Humanized anti-HER3 antibody; Only variable domains are tied to it
B2: Mab 205.10.3 (antibody, V domains shown)
VH: B1 VH
VL: B1 VL with A90S, V91I
notes: as for B1

Biological target: T1, human HER3 ECD (human, UniProt P21860 20-643)
T1 construct: also called hHER3-ECD; hu-HER3-ECD
Experiment: SPR (Biacore T100), antibody captured by anti-Fc gamma antibody, human HER3 ECD 0-1000 nM as analyte, 25°C, Langmuir 1:1 model

Binder | Kd [nM]
B1 | 2
B2 | 2
